From FireProtDB (doi:10.1021/bi034798l)

B1: SH2 domain-containing protein 1A, O60880 (parent)
chain: MDAVAVYHGKISRETGEKLLLATGLDGSYLLRDSESVPGVYCLCVLYHGYIYTYRVSQTETGSWSAETAPGVHKRYFRKIKNLISAFQKPDQGIVIPLQYPVEKKSSARSTQGTTGIREDPDVCLKAP

Variants of: B1
Conditions: Homo sapiens; pH 7.4; Thermal; CD; Phosphate buffer saline; structure 1KA6; whole UniProt chain shown

Row | Variant | Tm | change of melting temperature, mutant - wild type (higher = more stable)
1 | Y54C | 48.2 °C | -9.6 °C
2 | F87S | 50.5 °C | -7.3 °C
3 | G93D | 49.1 °C | -8.7 °C
4 | E67D | 44.2 °C | -13.6 °C
5 | L31P | 45.6 °C | -12.2 °C
